The values that follow come from article PMC6547412.

For data set [1], the target named is T1, eIF4A;eIF4B;eIF4G-MC (eIF4G) (yeast;yeast;yeast, UniProt P10081;P34167;P39935 1-395;1-436;572-952, ||).
T1 sequence 1: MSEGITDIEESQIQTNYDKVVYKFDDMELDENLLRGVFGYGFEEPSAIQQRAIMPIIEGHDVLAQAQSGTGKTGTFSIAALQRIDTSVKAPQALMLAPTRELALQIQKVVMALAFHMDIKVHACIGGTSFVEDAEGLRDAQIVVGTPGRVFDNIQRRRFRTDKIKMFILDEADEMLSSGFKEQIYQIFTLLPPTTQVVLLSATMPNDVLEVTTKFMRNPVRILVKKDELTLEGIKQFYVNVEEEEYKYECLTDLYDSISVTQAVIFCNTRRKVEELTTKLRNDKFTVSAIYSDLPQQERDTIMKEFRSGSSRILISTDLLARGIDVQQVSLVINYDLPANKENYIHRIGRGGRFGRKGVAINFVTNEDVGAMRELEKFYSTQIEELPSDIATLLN
T1 sequence 2: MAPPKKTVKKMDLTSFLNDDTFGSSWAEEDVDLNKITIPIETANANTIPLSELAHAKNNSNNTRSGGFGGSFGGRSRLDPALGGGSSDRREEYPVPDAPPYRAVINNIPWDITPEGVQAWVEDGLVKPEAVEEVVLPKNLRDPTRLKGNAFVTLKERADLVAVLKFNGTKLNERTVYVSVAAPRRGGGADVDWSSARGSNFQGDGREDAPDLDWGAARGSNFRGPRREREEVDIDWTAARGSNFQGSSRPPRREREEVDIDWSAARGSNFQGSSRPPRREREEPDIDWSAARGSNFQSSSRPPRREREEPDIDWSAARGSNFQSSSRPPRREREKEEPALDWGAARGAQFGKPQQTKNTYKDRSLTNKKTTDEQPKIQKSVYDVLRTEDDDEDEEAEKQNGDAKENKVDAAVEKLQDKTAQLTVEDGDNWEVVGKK
T1 sequence 3: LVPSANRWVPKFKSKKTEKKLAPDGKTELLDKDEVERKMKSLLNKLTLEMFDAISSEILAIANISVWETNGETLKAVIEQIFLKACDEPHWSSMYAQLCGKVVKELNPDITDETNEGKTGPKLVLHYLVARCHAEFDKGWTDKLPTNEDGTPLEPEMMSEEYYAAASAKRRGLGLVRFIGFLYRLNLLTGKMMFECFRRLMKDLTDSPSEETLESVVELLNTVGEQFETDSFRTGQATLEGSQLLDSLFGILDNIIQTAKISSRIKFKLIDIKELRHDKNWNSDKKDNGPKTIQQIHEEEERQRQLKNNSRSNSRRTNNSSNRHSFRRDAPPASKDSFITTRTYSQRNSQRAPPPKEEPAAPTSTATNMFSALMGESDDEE
The experiment in a line: fluorescence anisotropy. (Polarisation of emitted light reports the rotation of a fluorescent probe.)

The target of data set [2] is T2, eIF4G-MC (eIF4G) (yeast, UniProt P39935 572-952).
T2 sequence: T1 sequence 3
The experiment in a line: EMSA. A general note: In EMSA bound probe runs differently from free probe, usually more slowly.

The target of data set [3] is T3, eIF4A;eIF4G-MC (eIF4G) (yeast;yeast, UniProt P10081;P39935 1-395;572-952, |).
T3 sequence 1: T1 sequence 1
T3 sequence 2: T1 sequence 3
Description: EMSA.

The target in data set [4] is T4, eIF4B (yeast, UniProt P34167 1-436).
T4 sequence: T1 sequence 2
Description: EMSA.

B1: 20/10mer RNA (dsRNA)
RNA 1: ACUAGCACCGUAAAGCACGC
RNA 2: GCUUUACGGU
One may read the Kd as the constant that tells how readily two partners part at equilibrium. On to B1, for which, in data set [1], binding was characterised by a dissociation constant (Kd) of 3500 ± 500 nM. Also, the binding result in data set [2] is “no binding”; in data set [3] it was “binds”.

B2: 30/10mer RNA (dsRNA)
RNA 1: GGGGAGAAAAACUAGCACCGUAAAGCACGC
RNA 2: GCUUUACGGU
In the case of B2, the affinity in data set [1], expressed as Kd, was 1200 ± 300 nM. Besides, in data set [4], the binding result was “binds”.
